One assay addresses T1, recombinant human PEX (Homo sapiens, UniProt P78562).
T1 construct: excising the full length PEX cDNA that was then inserted into pcDNA3 vector; expressed in transfected cells; host or cells: COS-7 cells, transient transfection with pPEX (pcDNA3); 100,000 x g membrane fraction
T1 sequence (P78562 1-749): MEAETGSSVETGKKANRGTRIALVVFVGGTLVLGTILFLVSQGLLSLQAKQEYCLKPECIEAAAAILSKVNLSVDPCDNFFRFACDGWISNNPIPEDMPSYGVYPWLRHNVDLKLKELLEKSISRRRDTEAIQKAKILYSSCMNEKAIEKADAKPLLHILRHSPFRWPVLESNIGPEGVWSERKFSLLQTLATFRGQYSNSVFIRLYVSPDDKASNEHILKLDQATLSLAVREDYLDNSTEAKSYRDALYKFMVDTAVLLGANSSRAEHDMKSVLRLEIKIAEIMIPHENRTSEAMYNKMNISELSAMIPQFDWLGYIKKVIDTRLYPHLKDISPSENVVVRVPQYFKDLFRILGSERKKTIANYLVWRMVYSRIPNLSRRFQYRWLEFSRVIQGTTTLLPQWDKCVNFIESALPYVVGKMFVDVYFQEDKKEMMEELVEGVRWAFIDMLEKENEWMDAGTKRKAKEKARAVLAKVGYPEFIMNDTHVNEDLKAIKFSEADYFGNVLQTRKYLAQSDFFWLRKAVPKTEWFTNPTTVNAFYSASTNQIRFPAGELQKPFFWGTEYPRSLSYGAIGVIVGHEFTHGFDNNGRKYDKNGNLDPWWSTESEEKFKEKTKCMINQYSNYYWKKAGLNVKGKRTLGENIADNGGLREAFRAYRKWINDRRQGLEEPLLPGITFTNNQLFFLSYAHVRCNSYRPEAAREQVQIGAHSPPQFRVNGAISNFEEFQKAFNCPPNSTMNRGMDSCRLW
In words: Membrane-bound endopeptidase assay, hydrolysis by PEX-expressing COS cell membranes (HPLC). Format: biochemical. The following applies: for hydrolysis of the peptide in the presence of PEX: 10 μg peptide, COS cell membranes expressing PEX, HPLC at 214 nm, FIG. 8. The procedure: (§1) COS-7 cells transiently transfected with pcDNA3 vector alone, with vector containing human NEP cDNA (generous gift of P. Crine, Université de Montréal), or with pPEX plasmid, were washed and scraped in PBS. Following brief centrifugation, the cell pellets were resuspended in 50 mM Tris-HCl, pH 7.4 and disrupted by sonication. Homogenates were fractionated by sequential centrifugation at 1,000×g for 10 min and then at 100,000×g for 60 min. The final precipitate was washed with 50 mM Tris-HCl, pH 7.4, resuspended in the same buffer, and assayed for endopeptidase activity. The protein concentration in membrane fractions was determined by the method of Bradford with bovine serum albumin as standard.
[D-Ala^2,Leu^5] enkephalin (500 μM) was incubated with COS cell membrane preparations (˜60 μg of protein) in 100 mM Tris-HCl, pH 7.0, at 37° C. for 30 min (final volume 30 μl). The reaction was terminated by the addition of 100 μl 0.1% TFA (v/v). Production of Tyr-D-Ala-Gly was monitored using reversed-phase HPLC (Bondpak C-18 reverse phase column, Waters) with a U.V. detector set at 214 nm. A linear solvent gradient of 0% B to 40% B in 60 min was used with a flow rate of 1.5 ml/min (mobile phase A=0.1% TFA (v/v); mobile phase B=80% acetonitrile/0.1% TFA). Tyr-D-Ala-Gly was identified by co-chromatography with marker synthetic peptide. For assessing PEX endopeptidase activity, 10 μg of PTH [1-38] and PTH [1-34] peptides (Peninsula Laboratories; Belmont, Calif.) were added to the membrane preparations. For HPLC analysis of hydrolysis products, a linear solvent gradient of 0% to 50% solution B was used at a rate of 1.5 ml/min. MALDI-TOF mass spectrometry was performed on specific peptide fragments.

In a further assay the target is T2, recombinant human NEP (Homo sapiens, UniProt P08473).
T2 construct: expressed in transfected cells; host or cells: COS-7 cells, transient transfection; 100,000 x g membrane fraction
In words: Membrane-bound endopeptidase assay, hydrolysis by NEP-expressing COS cell membranes (HPLC). As to conditions: 500 μM substrate, 37° C., 30 min; FIG. 7B. Format: biochemical. As for the experimental part: as §1
[D-Ala^2,Leu^5] enkephalin (500 μM) was incubated with COS cell membrane preparations (˜60 μg of protein) in 100 mM Tris-HCl, pH 7.0, at 37° C. for 30 min (final volume 30 μl). The reaction was terminated by the addition of 100 μl 0.1% TFA (v/v). Production of Tyr-D-Ala-Gly was monitored using reversed-phase HPLC (Bondpak C-18 reverse phase column, Waters) with a U.V. detector set at 214 nm. A linear solvent gradient of 0% B to 40% B in 60 min was used with a flow rate of 1.5 ml/min (mobile phase A=0.1% TFA (v/v); mobile phase B=80% acetonitrile/0.1% TFA). Tyr-D-Ala-Gly was identified by co-chromatography with marker synthetic peptide. […]

T2 sequence (P08473 whole entry): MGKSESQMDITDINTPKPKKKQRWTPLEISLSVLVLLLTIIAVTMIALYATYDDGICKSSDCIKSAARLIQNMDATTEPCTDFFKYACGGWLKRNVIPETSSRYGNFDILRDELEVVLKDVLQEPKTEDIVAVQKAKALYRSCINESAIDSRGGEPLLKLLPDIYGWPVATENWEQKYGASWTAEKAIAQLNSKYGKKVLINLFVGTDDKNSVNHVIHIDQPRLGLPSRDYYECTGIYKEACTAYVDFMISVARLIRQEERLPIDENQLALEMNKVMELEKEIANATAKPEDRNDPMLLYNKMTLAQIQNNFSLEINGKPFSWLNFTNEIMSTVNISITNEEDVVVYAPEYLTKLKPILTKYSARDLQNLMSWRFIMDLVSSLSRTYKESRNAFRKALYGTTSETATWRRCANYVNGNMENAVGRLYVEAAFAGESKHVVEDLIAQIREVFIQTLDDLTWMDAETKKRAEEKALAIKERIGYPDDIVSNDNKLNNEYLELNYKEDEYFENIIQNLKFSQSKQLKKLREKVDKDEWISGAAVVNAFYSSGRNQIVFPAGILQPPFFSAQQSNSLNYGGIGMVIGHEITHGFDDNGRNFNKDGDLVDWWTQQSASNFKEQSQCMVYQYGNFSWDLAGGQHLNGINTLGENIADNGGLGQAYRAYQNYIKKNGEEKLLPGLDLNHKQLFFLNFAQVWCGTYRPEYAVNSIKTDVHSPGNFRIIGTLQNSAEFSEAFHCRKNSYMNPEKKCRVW

On to “PTH [1-34]: human parathyroid hormone peptide 1-34 (Peninsula Laboratories), used as PEX substrate”, for which the “hydrolysis of the peptide in the presence of PEX” value in the assay with recombinant human PEX is recorded as “hydrolyzed”.

Turning to “PTH [1-38]: human parathyroid hormone peptide 1-38 (Peninsula Laboratories), used as PEX substrate (SVSEIQLMHNLGKHLNSMERVEWLRKKLQDVHNFVALG)”, the “hydrolysis of the peptide in the presence of PEX” value with recombinant human PEX was “hydrolyzed”.

In the case of [D-Ala^2, Leu^5] enkephalin, at recombinant human PEX (500 μM substrate, 37° C., 30 min, FIG. 7C), the “production of Tyr-D-Ala-Gly from the substrate, PEX membranes” value is on record as “evident only in NEP-expressing membrane preparations”. At recombinant human NEP, the “production of Tyr-D-Ala-Gly from the substrate, NEP membranes” value is recorded as “evident only in NEP-expressing membrane preparations”.

These data come from patent publication US7393837B2, “Inhibition of PEX in the treatment of metabolic bone diseases” (McGill University, priority 1998, dated 2008).
